Measurements as given in patent US20260109774A1 (JUNO THERAPEUTICS, published 2026).

How the values were obtained:
[1] = biological target: T1, human B-cell maturation antigen (BCMA) on cells (human, UniProt Q02223 1-184); assay: flow cytometry on BCMA-expressing HEK293 cells vs control cells, crude lysate or bacterial supernatant; clone listed in Table E2
T1 construct: Recombinant on HEK293 or K562 cells, or endogenous on cell lines (H929, RPMI 8226, OPM2, MM1S, Daudi); also called hBCMA; huBCMA
T1 chain: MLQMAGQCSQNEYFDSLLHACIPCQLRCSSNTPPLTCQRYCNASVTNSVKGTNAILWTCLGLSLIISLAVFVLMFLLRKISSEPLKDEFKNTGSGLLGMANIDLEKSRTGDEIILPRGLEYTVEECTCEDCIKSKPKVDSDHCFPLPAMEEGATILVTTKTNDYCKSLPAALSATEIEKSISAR
Method: Specific binding of resulting scFv clones to BCMA-expressing HEK293 cells, as compared to control cells not expressing BCMA, was assessed by flow cytometry either with in vitro translated crude cell lysate or with bacterially-produced supernatant.

[2] = biological target: T2, BCMA-Fc (soluble human BCMA fused at its C-terminus to an Fc region of IgG) (human, UniProt Q02223 1-54); assay: flow cytometry, T cells transduced with Non-SSE construct, CD8 gate, recombinant BCMA-Fc (rBCMA) staining against surrogate marker
T2 construct: also called hBCMA-Fc; hBMCA-Fc
T2 sequence: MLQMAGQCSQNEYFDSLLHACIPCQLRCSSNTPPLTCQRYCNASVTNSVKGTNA
Method: (§1) Lentiviral constructs containing anti-BCMA CAR-encoding polynucleotides with starting and optimized sequences, respectively, as described in Example 3, were transduced into T cells and transduced cells were analyzed for transduction (based on expression of a surrogate marker) and for CAR expression based on binding to recombinant BCMA-Fc fusion protein by flow cytometry.

[3] = biological target: T2, BCMA-Fc (soluble human BCMA fused at …); assay: flow cytometry, T cells transduced with O/SSE construct, CD4 gate, recombinant BCMA-Fc (rBCMA) staining against surrogate marker
Method: as §1

[4] = biological target: T2, BCMA-Fc (soluble human BCMA fused at …); assay: flow cytometry, T cells transduced with O/SSE construct, CD8 gate, recombinant BCMA-Fc (rBCMA) staining against surrogate marker
Method: as §1

[5] = biological target: T2, BCMA-Fc (soluble human BCMA fused at …); assay: flow cytometry, T cells transduced with Non-SSE construct, CD4 gate, recombinant BCMA-Fc (rBCMA) staining against surrogate marker
Method: as §1

| Binder | binding result [1] | also measured |
| --- | --- | --- |
| BCMA-24 scFv (scFv) scFv: EVQLVQSGGGLVKPGGSLRLSCAASGFTFSDYYMSWIRQAPGKGLEWVSGISWNSGSIGYADSVKGRFTISRDNAKNSLYLQMNSLRAEDTAVYYCARDLGPPYGDDAFDIWGQGTMVTVSSGGGGSGGGGSGGGGSDIVMTQSPDSLAVSLGERATINCKSSQSVLYSSNNKNYLAWYQQKPGQPPKLLIYWGSTRESGVPDRFSGSGSGTDFTLTISSLQAEDVAIYHCQQYISLPWTFGQGTKVEIK | binds | – |
| BCMA-49 scFv (scFv) scFv: QVQLVESGGGLVKPGGSLRLSCAASGFTFSDYYMSWIRQAPGKGLEWVSYISSSGSTIYYADSVKGRFTISRDNAKNSLYLQMNSLRAEDTAVYYCAKVDGPPSFDIWGQGTMVTVSSGGGGSGGGGSGGGGSLPVLTQPPSVSVAPGKTARITCGGDQIGRKSVHWYQQKPGQAPVLVMSYDSDRPSGIPERFSGSNSGNTATLTISRVEAGDEAAYYCQVWDSSTGQYVVFGGGTKLTVL | binds | – |
| BCMA-42 scFv (scFv) scFv: EVQLLESGGGLVQPGRSLRLSCTASGFTFGDYAMSWFRQAPGKGLEWVGFIRSKAYGGTTEYAASVKGRFTISRDDSKSIAYLQMNSLKTEDTAVYYCAAWSAPTDYWGQGTLVTVSSGGGGSGGGGSGGGGSDIQMTQSPSLVSASVGDRVTITCRASQGIGNGLAWYQQKPGKAPKLLLFAASRLESGVPSRFSGSRSGTDYTLTISSLQPEDVATYYCQQYVEDALTFGGGTKVDIK | binds | – |
| BCMA-25-LS CAR (other, Chimeric antigen receptor; signal peptide left out; also called BCMA-25-LS-O/SSE CAR; BCMA-25-L CAR) EVQLVQSGGGLVQPGRSLRLSCTASGFTFGDYAMSWFRQAPGKGLEWVGFIRSKAYGGTTEYAASVKGRFTISRDDSKSIAYLQMNSLKTEDTAVYYCAAWSAPTDYWGQGTLVTVSSGGGGSGGGGSGGGGSDIQMTQSPAFLSASVGDRVTVTCRASQGISNYLAWYQQKPGNAPRLLIYSASTLQSGVPSRFRGTGYGTEFSLTIDSLQPEDFATYYCQQSYTSRQTFGPGTRLDIKESKYGPPCPPCPAPPVAGPSVFLFPPKPKDTLMISRTPEVTCVVVDVSQEDPEVQFNWYVDGVEVHNAKTKPREEQFQSTYRVVSVLTVLHQDWLNGKEYKCKVSNKGLPSSIEKTISKAKGQPREPQVYTLPPSQEEMTKNQVSLTCLVKGFYPSDIAVEWESNGQPENNYKTTPPVLDSDGSFFLYSRLTVDKSRWQEGNVFSCSVMHEALHNHYTQKSLSLSLGKMFWVLVVVGGVLACYSLLVTVAFIIFWVKRGRKKLLYIFKQPFMRPVQTTQEEDGCSCRFPEEEEGGCELRVKFSRSADAPAYQQGQNQLYNELNLGRREEYDVLDKRRGRDPEMGGKPRRKNPQEGLYNELQKDKMAEAYSEIGMKGERRRGKGHDGLYQGLSTATKDTYDALHMQALPPR | – | % of cells in Q1 (rBCMA+ marker-) [2]: 0.37%; % of cells in Q3 (rBCMA- marker+) [2]: 29.4%; % of cells in Q4 (rBCMA- marker-) [2]: 52.5%; % of cells in Q1 (rBCMA+ marker-) [3]: 2.36%; % of cells in Q3 (rBCMA- marker+) [3]: 10.4%; % of cells in Q4 (rBCMA- marker-) [3]: 22.3%; % of cells in Q1 (rBCMA+ marker-) [4]: 1.37%; % of cells in Q3 (rBCMA- marker+) [4]: 17.5%; % of cells in Q4 (rBCMA- marker-) [4]: 19.4%; % of cells in Q1 (rBCMA+ marker-) [5]: 0.31%; % of cells in Q3 (rBCMA- marker+) [5]: 30.5%; % of cells in Q4 (rBCMA- marker-) [5]: 51.3% |
| BCMA-35 scFv (scFv) scFv: EVQLVQSGGGLVKPGGSLRLSCAASGFTFSDYYMSWIRQAPGKGLEWVSYISSSGSTIYYADSVKGRFTISRDNAKNSLYLQMNSLRAEDTAVYYCARVDGDYDDYWGQGTLVTVSSGGGGSGGGGSGGGGSNFMLTQPPSVSVAPGQTARITCGANNIGSKSVHWYQQKPGQAPMLVVYDDDDRPSGIPERFSGSNSGNTATLTISGVEAGDEADYFCHLWDRSRDHYVFGTGTKLDIK | binds | – |
| BCMA-32 scFv (scFv) scFv: QVQLVESGGGLVKPGGSLRLSCAASGFTFSDYYMSWIRQAPGKGLEWVSYISSSGSTIYYADSVKGRFTISRDNAKNSLYLQMNSLRAEDTAVYYCAKVDGPPSFDIWGQGTMVTVSSGGGGSGGGGSGGGGSQTVVTQPPSVSVAPGQTARITCGGNNIGSKGVHWYRQRPGQAPEVVIYDDSDRPSGVPDRFSGSNSGNTATLTVRGVEAGDEADYYCQVWDSSSDHWVFGGGTKLTVL | binds | – |
| BCMA-37 scFv (scFv) scFv: EVQLVQSGGGLVKPGGSLRLSCAASGFTFSDYYMSWIRQAPGKGLEWVSYISSSGSTIYYADSVKGRFTISRDNAKSSLYLQMNSLRAEDTAVYYCARVDGDYVDDYWGQGTLVTVSSGGGGSGGGGSGGGGSQLVLTQEPSLTVSPGGTVTLTCGSSTGAVTNGHSPYWFQQKPGQAPRTLIYDTTNRHSWTPARFSGSLLGGKAALTLSGAQPEDEAEYYCSLSHAGDRVFFGGGTKLTVL | binds | – |
| BCMA-51 scFv (scFv) scFv: EVQLVQSGGGLVQPGRSLRLSCTASGFTFGDYAMSWFRQAPGKGLEWVGFIRSKAYGGTTEYAASVKGRFTISRDDSKSIAYLQMNSLKTEDTAVYYCAAWSAPTDYWGQGTLVTVSSGGGGSGGGGSGGGGSAIQLTQSPSTLSASVGDRVAITCRASQNIGDWLAWYQQKPGKAPKLLIFGASILESGVPSRFSGSGSGTDFTLTISSLQPEDVAVYYCQKYDGAPPWTFGQGTKVEIK | binds | – |
| BCMA-38 scFv (scFv) scFv: QVQLVQSGGGLVKPGGSLRLSCAASGFTFSDYYMSWIRQAPGKGLEWVSYISSSGSTIYYADSVKGRFTISRDNAKNSLYLQMNSLRAEDTAVYYCARVDGDYVDDYWGQGTLVTVSSGGGGSGGGGSGGGGSQAVLTQEPSLTVSPGGTVTLTCGSSTGAVTNGHSPYWFQQKPGQAPRTLIYDTNNRHSWTPARFSGSLLGGKAALTLSGAQPEDEADYFCLLSYSDARLAFGGGTKLTVL | binds | – |
| BCMA-48 scFv (scFv) scFv: EVQLVESGGGLVKPGGSLRLSCAASGFTFSDYYMSWIRQAPGKGLEWVSYISSSGSTIYYADSVKGRFTISRDNAKNSLYLQMNSLRAEDTAVYYCAKVDGPPSFDIWGQGTMVTVSSGGGGSGGGGSGGGGSQPVLTQPPSVSVAPGKTATITCGGNNIGSKSVHWYQRKPGQGPVVVIQYDTDRPSGIPERFSGSNSGNTATLTISRVEAGDEGDYYCQVWDSSSDHWVFGGGTKLTVL | binds | – |
| BCMA-34 scFv (scFv) scFv: TGQLVQSGGGLVQPGRSLRLSCAASGFTFDDYAMHWVRQAPGKGLEWVSGISWNSGSIGYADSVKGRFTISRDNAKNSLYLQMNSLRAEDTAVYYCARDLGPDYDPDAFDIWGQGTMVTVSSGGGGSGGGGSGGGGSEIVMTQSPATLSLSPGDRATLSCRASQSISNYLAWYQQKPGQAPRLLIYDASNRATGIPARFSGSGSGTDFTLTISSLEPEDFAVYYCQQRSNWPPYTFGQGTKLDIK | binds | – |
| BCMA-45 scFv (scFv) scFv: QVQLVQSGGGLVQPGRSLRLSCTASGFTFGDYAMSWFRQAPGKGLEWVGFIRSKAYGGTTEYAASVKGRFTISRDDSKSIAYLQMNSLKTEDTAVYYCAAWSAPTDYWGQGTLVTVSSGGGGSGGGGSGGGGSAIRMTQSPSSLSASVGDRVTITCRASQGIGRSLAWYKQKPGGVPQLLIHDASSLRSGVPSRFSGSGSGTEFTLTISGVQSEDSATYHCQQLNGYPWTFGQGTKVDIK | binds | – |
| BCMA-41 scFv (scFv) scFv: QVQLVQSGGGLVKPGGSLRLSCAASGFTFSDYYMSWIRQAPGKGLEWVSYISSSGNTIYYADSVKGRFTISRDNAKNSLYLQMNSLRAEDTAVYYCAKVDGDYVDDYWGQGTLVTVSSGGGGSGGGGSGGGGSQPVLTQPPSVSGTPGQRVTIPCSGSSSNIGGNSVDWFQEVPGTAPKLLIYANDRRPSGVPDRFSGTKSGTSASLAIRGLQSDDDAHYYCESWDDALNGHVFGGGTKLTVL | binds | – |
| BCMA-36 scFv (scFv) scFv: QVQLVQSGGGLVKPGGSLRLSCAASGFTFSDYYMSWIRQAPGKGLEWVSYISSSGSTIYYADSVKGRFTISRDNAKNSLYLQMNSLRAEDTAVYYCARVDGDYVDDYWGQGTLVTVSSGGGGSGGGGSGGGGSQSVLTQEPSLTVSPGETVTLTCGSSTGPVTSAHSPSWFQKKPGQAPTTLIYETTNRHSWTPARFSGSLLGGKAALTLSGAQPEDEADYYCLLSSGDARMVFGGGTKLTVL | binds | – |
